According to patent US20250195637A1:

Legend:
[1] = target: F RSV v.3, chimeric HMPV/RSV stabilized F pre-fusion form (mutated extracellular domain of F protein from hRSV with transmembrane and cytoplasmic domains of F protein from hMPV C-85473) (chimera of hRSV (RSV A2 strain, mutated) and hMPV (C-85473)); assay: flow cytometry, Palivizumab-PE on LLC-MK2 cells infected with Bivalent Metavac®-RSV v.3
[2] = target: F RSV v.2, mutated F protein from hRSV corresponding to the stabilized prefusion state (human respiratory syncytial virus (hRSV), RSV A2 strain, mutated) (UniProt P03420); assay: flow cytometry, Palivizumab-PE on LLC-MK2 cells infected with Bivalent Metavac®-RSV v.2
[3] = target: F RSV v.1, native (wild-type) F protein of hRSV, RSV A2 strain (human respiratory syncytial virus (hRSV), RSV A2 strain) (UniProt P03420); assay: flow cytometry, Palivizumab-PE on LLC-MK2 cells infected with Bivalent Metavac®-RSV v.1
[4] = target: Wild-type F protein from the hMPV strain rC-85473 (human metapneumovirus (hMPV), strain rC-85473) (UniProt Q6WB98); assay: flow cytometry, HMPV24-A647 on LLC-MK2 cells infected with Bivalent Metavac®-RSV v.1
[5] = target: Wild-type F protein from the hMPV strain rC-85473 (human metapneumovirus (hMPV), strain rC-85473) (UniProt Q6WB98); assay: flow cytometry, HMPV24-A647 on LLC-MK2 cells infected with Bivalent Metavac®-RSV v.3
[6] = target: Wild-type F protein from the hMPV strain rC-85473 (human metapneumovirus (hMPV), strain rC-85473) (UniProt Q6WB98); assay: flow cytometry, HMPV24-A647 on LLC-MK2 cells infected with rC-85473
[7] = target: Wild-type F protein from the hMPV strain rC-85473 (human metapneumovirus (hMPV), strain rC-85473) (UniProt Q6WB98); assay: flow cytometry, HMPV24-A647 on LLC-MK2 cells infected with Bivalent Metavac®-RSV v.2

Row | Substance | Infected cells expressing RSV-F [%, GFP and PE positive cells] [1] | Infected cells expressing RSV-F [%, GFP and PE positive cells] [2] | Infected cells expressing RSV-F [%, GFP and PE positive cells] [3] | Infected cells expressing HMPV-F [%, GFP and A647 positive cells] [4] | Infected cells expressing HMPV-F [%, GFP and A647 positive cells] [5] | Infected cells expressing HMPV-F [%, GFP and A647 positive cells] [6] | Infected cells expressing HMPV-F [%, GFP and A647 positive cells] [7]
1 | Palivizumab Synagis® AstraZeneca, monoclonal humanized antibody detecting both pre-fusion and post-fusion forms of the F RSV protein | 47.2% | 54.6% | 65.5% | – | – | – | –
2 | Monoclonal mouse antibody detecting the F HMPV protein (MAb HMPV24 BioRad MCA 4674) | – | – | – | 94.8% | 85.2% | 98.9% | 94.8%
